T1: GST-OsNAC15 (Oryza sativa, UniProt K9LKF1 1-301)
T1 sequence: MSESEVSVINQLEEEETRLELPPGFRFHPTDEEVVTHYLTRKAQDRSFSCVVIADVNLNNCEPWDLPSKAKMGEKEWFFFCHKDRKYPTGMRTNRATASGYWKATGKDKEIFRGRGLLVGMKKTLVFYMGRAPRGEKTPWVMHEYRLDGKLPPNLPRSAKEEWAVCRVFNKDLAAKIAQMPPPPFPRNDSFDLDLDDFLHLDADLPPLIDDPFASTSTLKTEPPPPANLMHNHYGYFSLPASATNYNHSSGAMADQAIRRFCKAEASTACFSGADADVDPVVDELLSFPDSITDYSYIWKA

B1: OsZIP10 probe (dsDNA)
DNA 1: TCGCGCCATGGTGTCGACACGGCCATCTCT
DNA 2: AGAGATGGCCGTGTCGACACCATGGCGCGA
B2: OsZIP10 cold competitor (dsDNA)
DNA 1: TCGCGCCATGGTGTCGACACGGCCATCTCT
DNA 2: AGAGATGGCCGTGTCGACACCATGGCGCGA

Tests used:
[1] = target: T1, GST-OsNAC15; assay: EMSA; EMSA: 20 uL reaction, room temperature, 20 min; 6.5% polyacrylamide gel in 0.5x TBE, 1 h; buffer, salt and pH not stated (LightShift Chemiluminescent EMSA kit); settings: protein: recombinant; tags: N-term GST (pGEX-4T1); chain copies: 2; label: biotin at 5' of F strand; biotin printed at 3' end of R strand; blunt
[2] = target: T1, GST-OsNAC15; assay: competition; 25-fold molar excess over labeled OsZIP10 probe; complex band weaker; EMSA: 20 uL reaction, room temperature, 20 min; 6.5% polyacrylamide gel in 0.5x TBE, 1 h; buffer, salt and pH not stated (LightShift Chemiluminescent EMSA kit); settings: protein: recombinant; tags: N-term GST (pGEX-4T1); chain copies: 2; label: none; blunt

Row | Binder | binding result [1] | binding result [2]
1 | B1 | binds | –
2 | B2 | – | binds

— publication PMC9569620, “OsNAC15 Regulates Tolerance to Zinc Deficiency and Cadmium by Binding to OsZIP7 and OsZIP10 in Rice”
